{
  "source": "patent US10030233B2",
  "about": "“Modified P450 reductase with N-terminal deletions and endoplasmic reticulum retention tag” (DE MONTFORT UNIVERSITY, priority 2013, dated 2018)",
  "molecules": {"B1": {"name": "hRD: wild-type human P450 reductase, full length, control (protein, listed as Homo sapiens)", "chain": "MGDSHVDTSSTVSEAVAEEVSLFSMTDMILFSLIVGLLTYWFLFRKKKEEVPEFTKIQTLTSSVRESSFVEKMKKTGRNIIVFYGSQTGTAEEFANRLSKDAHRYGMRGMSADPEEYDLADLSSLPEIDNALVVFCMATYGEGDPTDNAQDFYDWLQETDVDLSGVKFAVFGLGNKTYEHFNAMGKYVDKRLEQLGAQRIFELGLGDDDGNLEEDFITWREQFWPAVCEHFGVEATGEESSIRQYELVVHTDIDAAKVYMGEMGRLKSYENQKPPFDAKNPFLAAVTTNRKLNQGTERHLMHLELDISDSKIRYESGDHVAVYPANDSALVNQLGKILGADLDVVMSLNNLDEESNKKHPFPCPTSYRTALTYYLDITNPPRTNVLYELAQYASEPSEQELLRKMASSSGEGKELYLSWVVEARRHILAILQDCPSLRPPIDHLCELLPRLQARYYSIASSSKVHPNSVHICAVVVEYETKAGRINKGVATNWLRAKEPAGENGGRALVPMFVRKSQFRLPFKATTPVIMVGPGTGVAPFIGFIQERAWLRQQGKEVGETLLYYGCRRSDEDYLYREELAQFHRDGALTQLNVAFSREQSHKVYVQHLLKQDREHLWKLIEGGAHIYVCGDARNMARDVQNTFYDIVAELGAMEHAQAVDYIKKLMTKGRYSLDVWS"}, "B2": {"name": "ΔN1hRD-M: human P450 reductase lacking N-terminal 24 amino acids, with C-terminal 12-amino acid c-myc tag; described in WO 2007/129050; gene SEQ ID NO: 5 (protein)", "chain": "MTDMILFSLIVGLLTYWFLFRKKKEEVPEFTKIQTLTSSVRESSFVEKMKKTGRNIIVFYGSQTGTAEEFANRLSKDAHRYGMRGMSADPEEYDLADLSSLPEIDNALVVFCMATYGEGDPTDNAQDFYDWLQETDVDLSGVKFAVFGLGNKTYEHFNAMGKYVDKRLEQLGAQRIFELGLGDDDGNLEEDFITWREQFWPAVCEHFGVEATGEESSIRQYELVVHTDIDAAKVYMGEMGRLKSYENQKPPFDAKNPFLAAVTTNRKLNQGTERHLMHLELDISDSKIRYESGDHVAVYPANDSALVNQLGKILGADLDVVMSLNNLDEESNKKHPFPCPTSYRTALTYYLDITNPPRTNVLYELAQYASEPSEQELLRKMASSSGEGKELYLSWVVEARRHILAILQDCPSLRPPIDHLCELLPRLQARYYSIASSSKVHPNSVHICAVVVEYETKAGRINKGVATNWLRAKEPAGENGGRALVPMFVRKSQFRLPFKATTPVIMVGPGTGVAPFIGFIQERAWLRQQGKEVGETLLYYGCRRSDEDYLYREELAQFHRDGALTQLNVAFSREQSHKVYVQHLLKQDREHLWKLIEGGAHIYVCGDARNMARDVQNTFYDIVAELGAMEHAQAVDYIKKLMTKGRYSLDVWSSSEQKLISEEDLNGSRL", "modifications": "delN1hRD-M"}, "B3": {"name": "ΔN1hRD-HDEL: human P450 reductase lacking N-terminal 24 amino acids, with C-terminal yeast ER retention signal HDEL (protein)", "chain": "MTDMILFSLIVGLLTYWFLFRKKKEEVPEFTKIQTLTSSVRESSFVEKMKKTGRNIIVFYGSQTGTAEEFANRLSKDAHRYGMRGMSADPEEYDLADLSSLPEIDNALVVFCMATYGEGDPTDNAQDFYDWLQETDVDLSGVKFAVFGLGNKTYEHFNAMGKYVDKRLEQLGAQRIFELGLGDDDGNLEEDFITWREQFWPAVCEHFGVEATGEESSIRQYELVVHTDIDAAKVYMGEMGRLKSYENQKPPFDAKNPFLAAVTTNRKLNQGTERHLMHLELDISDSKIRYESGDHVAVYPANDSALVNQLGKILGADLDVVMSLNNLDEESNKKHPFPCPTSYRTALTYYLDITNPPRTNVLYELAQYASEPSEQELLRKMASSSGEGKELYLSWVVEARRHILAILQDCPSLRPPIDHLCELLPRLQARYYSIASSSKVHPNSVHICAVVVEYETKAGRINKGVATNWLRAKEPAGENGGRALVPMFVRKSQFRLPFKATTPVIMVGPGTGVAPFIGFIQERAWLRQQGKEVGETLLYYGCRRSDEDYLYREELAQFHRDGALTQLNVAFSREQSHKVYVQHLLKQDREHLWKLIEGGAHIYVCGDARNMARDVQNTFYDIVAELGAMEHAQAVDYIKKLMTKGRYSLDVWSHDEL", "modifications": "delN1hRD-HDEL", "notes": "human P450 reductase lacking N-terminal 24 amino acids, with C-terminal yeast ER retention signal HDEL"}, "B4": {"name": "ΔN2hRD-HDEL: human P450 reductase lacking the 54-amino acid membrane anchoring region, with C-terminal yeast ER retention signal HDEL (protein)", "chain": "MTKIQTLTSSVRESSFVEKMKKTGRNIIVFYGSQTGTAEEFANRLSKDAHRYGMRGMSADPEEYDLADLSSLPEIDNALVVFCMATYGEGDPTDNAQDFYDWLQETDVDLSGVKFAVFGLGNKTYEHFNAMGKYVDKRLEQLGAQRIFELGLGDDDGNLEEDFITWREQFWPAVCEHFGVEATGEESSIRQYELVVHTDIDAAKVYMGEMGRLKSYENQKPPFDAKNPFLAAVTTNRKLNQGTERHLMHLELDISDSKIRYESGDHVAVYPANDSALVNQLGKILGADLDVVMSLNNLDEESNKKHPFPCPTSYRTALTYYLDITNPPRTNVLYELAQYASEPSEQELLRKMASSSGEGKELYLSWVVEARRHILAILQDCPSLRPPIDHLCELLPRLQARYYSIASSSKVHPNSVHICAVVVEYETKAGRINKGVATNWLRAKEPAGENGGRALVPMFVRKSQFRLPFKATTPVIMVGPGTGVAPFIGFIQERAWLRQQGKEVGETLLYYGCRRSDEDYLYREELAQFHRDGALTQLNVAFSREQSHKVYVQHLLKQDREHLWKLIEGGAHIYVCGDARNMARDVQNTFYDIVAELGAMEHAQAVDYIKKLMTKGRYSLDVWSHDEL", "modifications": "delN2hRD-HDEL", "notes": "human P450 reductase lacking the 54-amino acid membrane anchoring region, with C-terminal yeast ER retention signal HDEL"}},
  "key": {"[1]": {"assay": "MTT-based cytochrome P450 reductase assay on yeast microsomes", "format": "biochemical", "conditions": "relative to hRD = 1; 100 μg yeast microsomes, A610", "source_text": "The enzyme NADPH-cytochrome P450 reductase mediates the transfer of electrons from NADPH to cytochrome P450, other microsomal proteins and cytochrome c. It also catalyses the reduction of many drugs and other compounds such as potassium ferricyanide, 2,6-dichloroindopheonl, 1,1-diphenyl-2-picrylhydrazyl (DPPH), and mitomycin c. Tetrazolium salts are used extensively in cell proliferation and cytotoxicity assays, enzyme assays, histochemical procedures and bacteriological screening. […] The compound 3-(4,5-dimethylthiazol-2-yl)-2,5-diphenyltetrazolium bromide (MTT) is a monotetrazolium salt. The reduction of MTT is one of the most frequently used methods for measuring cell proliferation and cytotoxicity. Reduction of MTT by P450 reductase has been assessed as a method for monitoring yeast produced recombinant P450 reductase activity and the protocol was developed on the procedure published by Yim S-K, et al (Yim S-K., Y. C.-H. Ahn T., Hung H-C and Pan J-G. A continuous Spectrophotometric assay for NADPH-cytochrome P450 reductase activity using 3-(4,5 Dimethylthiazol-2-yl)-2,5-diphenyltetrazolium Bromide. Journal of Biology and Molecular Biology 38: 366-369, 2005). The principal advantage of this substance is that the reduction of MTT can be assayed directly in the reaction medium by a continuous spectrophotometirc method. The electrons released from NADPH by P450 reductase are transferred to MTT, and then the amounts of reduced MTT is assessed spectrophotometrically by measuring the increase in A610 values that is due to the formation of blue formazan. The extinction coefficient of MTT is 11.3 mM^−1 cm^−1. This method offers the advantages of short analysis time with the use of a relatively cheap commercial substrate. The classical assay uses recombinant cytochrome c as a substrate. […]\nDisposable cuvettes were used for this experiment. […] The cuvette was quickly placed into the spectrophotometer together with the blank cuvette and its contents (that contained all components as in the other test cuvette but not the microsomes or cell supernatant) and the increase in the values at 610 nm was measured for a time period of 400 seconds. The electrons released from NADPH by recombinant P450 reductase enzyme were transferred to MTT, and the ability to reduce MTT was assessed spectrophotometrically by measuring the increase in A610 values as a result of the formation of blue formazan. The rate of MTT reduction was calculated from the change in A610 values using an extinction coefficient of 11.3 mM^−1 cm^−1 and the formula, ΔA610/min/11.3*0.1 mg/ml=μmole reduced MTT/min/mg of protein."}, "CYP": {"system": "CYP", "assay": "CYP specific activity on co-expression of a CYP with the reductase", "format": "biochemical", "conditions": "co-expressed with a CYP", "source_text": "The activity of cytochrome P450 may be measured by the EROD assay or by other assays known in the art. The expression of cytochrome P450 may be measured using CO-difference spectra as is known in the art and is described in the examples herein."}, "yeast cells": {"system": "yeast cells", "assay": "Dihydroethidium assay for ROS detection in yeast cells expressing a P450 reductase", "format": "cell-based, Saccharomyces cerevisiae", "conditions": "gene synthesized using yeast-biased codons compared with ΔN1hRD-M gene isolated from human liver cDNA library; FIG. 13", "description": "The reactive oxygen species generated in yeast cells due to expression of a P450 reductase were assessed using dihydroethidium fluorescence assay. Reactive oxygen species reacts with dihydroethidium to produce ethidium bromide which binds to the nuclear DNA and emits red fluorescence. Dihydroethidine is one of the best reagents available for measuring intracellular production of reactive oxygen species. After overnight induction of a P450 reductase, the cultures were analysed for induction of reactive oxygen species. The control (wt-hRD) and test (ΔN1hRD-M, ΔN1hRD-HDEL, ΔN2hRD-HDEL) yeast cultures were washed in sterile PBS and then incubated with dihydroethidium (5 μM final concentration) for 30 min. After washing with sterile PBS twice (to remove the extracellular dye), the samples were transferred into 96-well black plates with transparent bottom (COSTAR®). Fluorescence was measured using a BIO-TEK® plate reader. Excitation and emission wavelengths were 260 and 610 nm respectively. The percent induction in the formation of reactive oxygen species was calculated by comparing with cultures where genes were not induced."}},
  "data": [
    {"molecule": "B1", "values": [
      {"measurement": "μM of reduced MTT/min/mg of protein (Relative Rates)", "setting": "[1]", "value": 1}
    ]},
    {"molecule": "B2", "values": [
      {"measurement": "μM of reduced MTT/min/mg of protein (Relative Rates)", "setting": "[1]", "value": "2.5 ± 10", "unit": "%"},
      {"measurement": "CYP specific activities", "setting": "CYP", "value": "higher CYP specific activities"},
      {"measurement": "ROS produced", "setting": "yeast cells", "value": "far less ROS"}
    ]},
    {"molecule": "B3", "values": [
      {"measurement": "μM of reduced MTT/min/mg of protein (Relative Rates)", "setting": "[1]", "value": "3 ± 10", "unit": "%"}
    ]},
    {"molecule": "B4", "values": [
      {"measurement": "μM of reduced MTT/min/mg of protein (Relative Rates)", "setting": "[1]", "value": "3.5 ± 10", "unit": "%"}
    ]}
  ]
}
